B2: human IFIT1 (natural protein, UniProt P09914-1 1-478, looked up)
chain: MSTNGDDHQVKDSLEQLRCHFTWELSIDDDEMPDLENRVLDQIEFLDTKYSVGIHNLLAYVKHLKGQNEEALKSLKEAENLMQEEHDNQANVRSLVTWGNFAWMYYHMGRLAEAQTYLDKVENICKKLSNPFRYRMECPEIDCEEGWALLKCGGKNYERAKACFEKVLEVDPENPESSAGYAISAYRLDGFKLATKNHKPFSLLPLRQAVRLNPDNGYIKVLLALKLQDEGQEAEGEKYIEEALANMSSQTYVFRYAAKFYRRKGSVDKALELLKKALQETPTSVLLHHQIGLCYKAQMIQIKEATKGQPRGQNREKLDKMIRSAIFHFESAVEKKPTFEVAHLDLARMYIEAGNHRKAEENFQKLLCMKPVVEETMQDIHFHYGRFQEFQKKSDVNAIIHYLKAIKIEQASLTRDKSINSLKKLVLRKLRRKALDLESLSLLGFVYKLEGNMNEALEYYERALRLAADFENSVRQGP
B3: human IFIT3 (natural protein, UniProt O14879 1-490, looked up)
chain: MSEVTKNSLEKILPQLKCHFTWNLFKEDSVSRDLEDRVCNQIEFLNTEFKATMYNLLAYIKHLDGNNEAALECLRQAEELIQQEHADQAEIRSLVTWGNYAWVYYHLGRLSDAQIYVDKVKQTCKKFSNPYSIEYSELDCEEGWTQLKCGRNERAKVCFEKALEEKPNNPEFSSGLAIAMYHLDNHPEKQFSTDVLKQAIELSPDNQYVKVLLGLKLQKMNKEAEGEQFVEEALEKSPCQTDVLRSAAKFYRRKGDLDKAIELFQRVLESTPNNGYLYHQIGCCYKAKVRQMQNTGESEASGNKEMIEALKQYAMDYSNKALEKGLNPLNAYSDLAEFLETECYQTPFNKEVPDAEKQQSHQRYCNLQKYNGKSEDTAVQHGLEGLSISKKSTDKEEIKDQPQNVSENLLPQNAPNYWYLQGLIHKQNGDLLQAAKCYEKELGRLLRDAPSGIGSIFLSASELEDGSEEMGQGAVSSSPRELLSNSEQLN

The assay “human IFIT3” addresses B3. The assay can be described thus: ITC. On the technique in general: In ITC the heat of successive injections is recorded.
The target of the assay “human IFIT1” is B2. Briefly: ITC.
The target in assay [1] is T1, maltose binding protein (MBP)-tagged IFIT1 (human, UniProt P09914-1 1-478).
T1 sequence (looked up): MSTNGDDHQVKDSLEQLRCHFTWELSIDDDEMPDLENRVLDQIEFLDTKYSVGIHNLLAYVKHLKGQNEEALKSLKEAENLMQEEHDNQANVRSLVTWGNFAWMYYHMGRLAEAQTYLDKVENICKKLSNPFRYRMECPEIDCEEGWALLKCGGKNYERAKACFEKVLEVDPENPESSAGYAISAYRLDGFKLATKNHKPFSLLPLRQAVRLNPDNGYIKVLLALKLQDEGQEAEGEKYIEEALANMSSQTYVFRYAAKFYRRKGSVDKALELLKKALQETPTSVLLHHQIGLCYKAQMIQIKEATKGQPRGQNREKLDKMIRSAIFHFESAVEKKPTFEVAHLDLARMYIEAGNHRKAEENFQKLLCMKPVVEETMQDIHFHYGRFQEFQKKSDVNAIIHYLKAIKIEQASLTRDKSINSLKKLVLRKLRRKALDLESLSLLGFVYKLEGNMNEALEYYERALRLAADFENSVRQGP
Briefly: pull-down.

A word on the Kd: it is the free concentration of one partner at which half of the binding sites on the other are occupied at equilibrium, for simple one-to-one binding. High values mean lower affinity, low ones higher affinity. By stoichiometry N is commonly meant a count of units in the complex or per binding partner.

B1: IFIT1 RNA binding mutant (R38A and K151A) (natural protein, human, UniProt P09914-1 1-478, looked up)
chain: MSTNGDDHQVKDSLEQLRCHFTWELSIDDDEMPDLENAVLDQIEFLDTKYSVGIHNLLAYVKHLKGQNEEALKSLKEAENLMQEEHDNQANVRSLVTWGNFAWMYYHMGRLAEAQTYLDKVENICKKLSNPFRYRMECPEIDCEEGWALLACGGKNYERAKACFEKVLEVDPENPESSAGYAISAYRLDGFKLATKNHKPFSLLPLRQAVRLNPDNGYIKVLLALKLQDEGQEAEGEKYIEEALANMSSQTYVFRYAAKFYRRKGSVDKALELLKKALQETPTSVLLHHQIGLCYKAQMIQIKEATKGQPRGQNREKLDKMIRSAIFHFESAVEKKPTFEVAHLDLARMYIEAGNHRKAEENFQKLLCMKPVVEETMQDIHFHYGRFQEFQKKSDVNAIIHYLKAIKIEQASLTRDKSINSLKKLVLRKLRRKALDLESLSLLGFVYKLEGNMNEALEYYERALRLAADFENSVRQGP
B1: binding with human IFIT3 was characterised by a dissociation constant (Kd) of 2.1 ± 6 nM.

As to B2, the equilibrium dissociation constant (Kd) with human IFIT3 was found to be 1.5 ± 2 nM.

In the case of B3, in the assay with human IFIT1, the dH was -13 kcal/mol and the “stoichiometry N” value was determined as 0.93 ± 0.01.

B4: chimeric construct Ifit3-IFIT3CTD (other, mouse | human, UniProt Q64345 1-403, looked up)
chain: MSEVNRESLEAILPQLKCHFTWNLFREGSMSSHMEDRVCNQVEHLNSEEKATMYDLLAYIKHLDGESKAALECLGQAEDLRKSEHNDQSEIRRLVTWGNYAWIYYHMGRLSEAQAYVDKVRQVCQKFANPYSMECPELECEEGWTRLKCGRNERAKMCFEKALEEKPKDPECSSGMAIAMFRLEEKPEKQFSVDALKQAMELNPQNQYLKVLLALKLLRMGEEAEGERLIKDALGKAPNQTDVLQKAAQFYKKKGNLDRAIELLGKALRSTVNNSPLYSLVMCRYREILEQLQNKGDADSSERRQRMAELRRLTMEFMQKTLQRRRSPLNSYSDLIDFPEVERCYQMVISKESPDVEEEDLYERYCNLQEYHRKSEDLAALECLLQFPRNERSIEKEEVKEQTQNVSENLLPQNAPNYWYLQGLIHKQNGDLLQAAKCYEKELGRLLRDAPSGIGSIFLSASELEDGSEEMGQGAVSSSPRELLSNSEQLN
As to B4, in assay [1], the binding result is listed as “binds”.

B5: IFIT3 403–490 (IFIT3CTD) (domain or fragment, human, UniProt O14879 403-490, looked up)
chain: QNVSENLLPQNAPNYWYLQGLIHKQNGDLLQAAKCYEKELGRLLRDAPSGIGSIFLSASELEDGSEEMGQGAVSSSPRELLSNSEQLN
Take B5: in the assay with human IFIT1, the Kd was found to be 1.4 ± 3.1 nM, the dH is -17 kcal/mol and the “stoichiometry N” value worked out at 0.97 ± 0.03.

The record behind these values is publication PMC6251713 (Immunity, 2018).
